The record followed here is publication PMC4144708 (Biochemistry, 2014).

Substrate in data set [1]: [H][C@@]12COP(=O)(O)O[C@@]1([H])[C@@H](O)[C@H](n1cnc3c(=O)[nH]c(N)nc31)O2
Kind of data set: [3H]cGMP hydrolysis, scintillation counting, Michaelis-Menten fit. In kind it is biochemical, Saccharomyces cerevisiae. The settings on record: 50 mM Tris-HCl pH 7.5, room temperature, no added ion, labelled compound.

The data set “SEC” concerns the molecule itself. Kind of data set: SEC. A general note: SEC sorts molecules by how far they enter the pores of the column.

B1: yeast phosphodiesterase-1 (yPDE1), full length (residues 1-369) (enzyme, Saccharomyces cerevisiae, UniProt P22434 1-369, looked up)
chain: MVVFEITILGANGGPTEYGTQCFILKPARTEDPELIAVDGGAGMYQLREMLVQGRNENEGDDELVPSFYEHDREPIEFFIDSKLNIQKGLSKSLLQSLKRQGEHFESANTMKKTYEVFQGITDYYITHPHLDHISGLVVNSPSIYEQENSKKKTIWGLPHTIDVLQKHVFNDLIWPDLTAERSRKLKLKCLNPKEVQKCTIFPWDVIPFKVHHGIGVKTGAPVYSTFYIFRDRKSKDCIIVCGDVEQDRRESEESLLEEFWSYVAENIPLVHLKGILVECSCPLSSKPEQLYGHLSPIYLINELSNLNTLYNSSKGLSGLNVIVTHVKSTPAKRDPRLTILEELRFLAEERNLGDLRISIALEGHTLFL
On to B1, for which, in data set [1], the Km (usually the substrate concentration at which the rate is half of its maximum) is 104.7 ± 10.2 µM; the kcat – broadly, the maximal rate divided by the concentration of active sites – is 11.8 ± 1 s⁻¹; the kcat/Km – broadly, the turnover number divided by the Michaelis constant – was 113000 M⁻¹ s⁻¹. The stoichiometry N (as a rule, the number of molecules, sites or subunits per partner or assembly) in the data set “SEC” was 2.
